Several values for one entry are separate records, joined by “and”; a condition that tells them apart may be missing. Equal entries are not always repeated.
How the values were obtained:
Assay in all cases: plate binding assay (luminescent)
[1] = system: AGO2 full-length (human); conditions: Ca2+ and Mg2+; 3'-biotinylated cytidine (bis)phosphate ligated; ELISA plate-immobilized protein, BSA block; PBS with or without 0.5 mM MgCl2, or HBSS with 1.26 mM Ca2+ and 0.9 mM Mg2+; neutral pH; 2 h at 37 C or overnight …
[2] = system: poly-ornithine; conditions: miRNA species not given; 3'-biotinylated cytidine (bis)phosphate ligated; ELISA plate-immobilized protein, BSA block; PBS with or without 0.5 mM MgCl2, or HBSS with 1.26 mM Ca2+ and 0.9 mM Mg2+; neutral pH; 2 h at 37 C or overnight
[3] = target: sNRP1 (human) (UniProt O14786); conditions: 3'-biotinylated cytidine (bis)phosphate ligated, ELISA plate-immobilized protein, BSA block, PBS with or without 0.5 mM MgCl2, or HBSS with 1.26 mM Ca2+ and 0.9 mM Mg2+, neutral pH, 2 h at 37 C or overnight …
Chain of sNRP1 (human) (O14786 22-640): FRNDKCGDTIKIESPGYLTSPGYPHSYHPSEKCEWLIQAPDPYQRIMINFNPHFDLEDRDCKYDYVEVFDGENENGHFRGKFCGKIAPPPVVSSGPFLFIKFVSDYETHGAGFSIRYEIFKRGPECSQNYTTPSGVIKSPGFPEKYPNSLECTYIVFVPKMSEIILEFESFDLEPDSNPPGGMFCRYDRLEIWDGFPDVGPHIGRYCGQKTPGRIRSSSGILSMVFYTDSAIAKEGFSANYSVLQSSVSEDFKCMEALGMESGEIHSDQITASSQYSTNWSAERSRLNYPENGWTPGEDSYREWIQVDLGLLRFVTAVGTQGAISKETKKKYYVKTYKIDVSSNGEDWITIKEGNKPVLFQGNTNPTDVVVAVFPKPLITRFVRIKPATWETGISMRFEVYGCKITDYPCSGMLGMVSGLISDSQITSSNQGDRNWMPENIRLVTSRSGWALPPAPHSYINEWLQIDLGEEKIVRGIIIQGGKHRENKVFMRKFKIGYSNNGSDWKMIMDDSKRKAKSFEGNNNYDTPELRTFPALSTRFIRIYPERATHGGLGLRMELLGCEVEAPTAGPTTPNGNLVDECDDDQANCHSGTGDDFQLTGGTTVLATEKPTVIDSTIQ

[4] = system: NRP1-Fc (rat); conditions: 3'-biotinylated cytidine (bis)phosphate ligated; ELISA plate-immobilized protein, BSA block; PBS with or without 0.5 mM MgCl2, or HBSS with 1.26 mM Ca2+ and 0.9 mM Mg2+; neutral pH; 2 h at 37 C or overnight …

miR-20a
Kd [1]: 7.27 nM | Kd [2]: 6.67 nM

miR-138
Kd ([3]; 0.9 mM Mg2+, 1.2 mM Ca2+ (1.26 in Methods)): 0.772 nM | Kd [3]: 0.348 nM

miR-331
Kd [4]: 0.911 nM

miR-422
Kd [3]: 0.344 nM and 0.138 nM

— paper PMC5356539
